Measured values published in PMC6144805.

Biological target: RecQ-ΔΔC (E. coli RecQ variant lacking both the WH and HRDC domains) (Escherichia coli)

Sequence of E. coli ssDNA-binding protein (SSB) (P0AGE0 whole entry): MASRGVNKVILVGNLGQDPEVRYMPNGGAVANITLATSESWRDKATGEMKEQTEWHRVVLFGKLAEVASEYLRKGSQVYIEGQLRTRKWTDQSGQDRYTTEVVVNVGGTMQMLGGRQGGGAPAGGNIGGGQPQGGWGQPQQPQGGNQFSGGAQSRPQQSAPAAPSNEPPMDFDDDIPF

Question: Which average unwinding processivity of RecQ-ΔΔC with SSB does the source give for “E. coli ssDNA-binding protein (SSB) (from UniProt P0AGE0 1-178) (natural protein)” here?
Answer: 2.5 kb
